Results taken from patent US20100172907A1 (Hoffmann-La Roche, published 2010).
Changes are numbered by the printed parent chain. Groups on a side chain read outwards from the residue. No end group written: not given here. NSMP = not defined here

T1: BSA-conjugated Aβ heptapeptide VFFAEDC (C-terminal Cys coupled to NSMP-activated BSA)
T1 construct: also called Peptide 18-23
T1 peptide: VFFAEDC

T2: BSA-conjugated Aβ heptapeptide LVFFAEC (reading uncertain; also: BSA conjugate)
T2 construct: also called Peptide 17-22
T2 peptide: LVFFAEC([NSMP-BSA])

T3: BSA-conjugated Aβ heptapeptide AEFRHDC (C-terminal Cys coupled to NSMP-activated BSA)
T3 construct: also called Peptide 2-7
T3 peptide: AEFRHDC

T4: BSA-conjugated Aβ heptapeptide FFAEDVC (C-terminal Cys coupled to NSMP-activated BSA)
T4 construct: also called Peptide 19-24
T4 peptide: FFAEDVC

B1: MS-Roche #7 Fab (Fab, V domains shown)
VH: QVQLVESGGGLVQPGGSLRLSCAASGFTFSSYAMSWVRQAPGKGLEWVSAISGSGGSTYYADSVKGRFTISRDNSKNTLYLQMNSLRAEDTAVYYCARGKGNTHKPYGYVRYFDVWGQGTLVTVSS
VL: DIVLTQSPATLSLSPGERATLSCRASQSVSSSYLAWYQQKPGQAPRLLIYGASSRATGVPARFSGSGSGTDFTLTISSLEPEDFATYYCFQLYSDPFTFGQGTKVEIKR
notes: parental HuCAL Fab; also called MSR-7 Fab; MS-R 7
B2: MS-Roche #7.2 Fab (Fab, V domains shown)
VH: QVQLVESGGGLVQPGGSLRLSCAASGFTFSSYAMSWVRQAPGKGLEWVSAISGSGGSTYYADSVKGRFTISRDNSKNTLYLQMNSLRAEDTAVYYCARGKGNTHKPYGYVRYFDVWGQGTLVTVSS
VL: B1 VL with F90Q, L92I, D95F, F97H
B3: MS-Roche #7.2.L1 Fab (Fab, V domains shown)
VH: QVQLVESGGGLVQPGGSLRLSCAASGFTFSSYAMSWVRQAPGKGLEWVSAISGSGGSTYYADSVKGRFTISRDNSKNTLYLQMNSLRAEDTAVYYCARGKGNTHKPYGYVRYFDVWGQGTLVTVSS
VL: B1 VL with S28Y, S30D, S31R, S32T, F90Q, L92I, D95F, F97H
B4: MS-Roche #7.2.H1 Fab (Fab, V domains shown)
VH: QVQLVESGGGLVQPGGSLRLSCAASGFTFSSYAMSWVRQAPGKGLEWVSAINANGLKKYYADSVKGRFTISRDNSKNTLYLQMNSLRAEDTAVYYCARGKGNTHKPYGYVRYFDVWGQGTLVTVSS
VL: B1 VL with F90Q, L92I, D95F, F97H
B5: MS-Roche #7.11 Fab (Fab, V domains shown)
VH: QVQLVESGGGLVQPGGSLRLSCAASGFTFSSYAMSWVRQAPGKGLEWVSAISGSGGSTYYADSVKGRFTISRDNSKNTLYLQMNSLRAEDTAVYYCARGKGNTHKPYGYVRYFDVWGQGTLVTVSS
VL: B1 VL with F90Q, L92V, D95P, F97H
B6: MS-Roche #7.11.H2 Fab (Fab, V domains shown)
VH: B4 VH with L56Y
VL: B1 VL with F90Q, L92V, D95P, F97H
B7: MS-Roche #7.9.H3 Fab (Fab, V domains shown)
VH: B4 VH with A53Y, N54Q, L56N, K57R
VL: B1 VL with F90L, L92I, S94N, D95M, F97I
notes: assembled
B8: MS-Roche #7.2.H2 Fab (Fab, V domains shown)
VH: B4 VH with A53G, N54T, L56M
VL: B1 VL with F90Q, L92I, D95F, F97H
B9: MS-Roche #7.2.H3 Fab (Fab, V domains shown)
VH: B4 VH with L56Y, K58T
VL: B1 VL with F90Q, L92I, D95F, F97H
B10: MS-Roche #7.2.H4 Fab (Fab, V domains shown)
VH: B4 VH with A53S, N54K, L56S, K57R, K58I
VL: B1 VL with F90Q, L92I, D95F, F97H
B11: MS-Roche #7.11.H1 Fab (Fab, V domains shown)
VH: B4 VH with A50G, N54A, L56F, K57R, K58T
VL: B1 VL with F90Q, L92V, D95P, F97H
B12: MS-Roche #7.4.H2 Fab (Fab, V domains shown)
VH: B4 VH with A53Y, L56A, K57R, K58I
VL: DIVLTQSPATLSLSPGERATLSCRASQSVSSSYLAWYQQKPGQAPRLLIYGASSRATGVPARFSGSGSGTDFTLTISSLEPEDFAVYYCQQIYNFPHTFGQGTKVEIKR
B13: MS-Roche #7.2.H5 Fab (Fab, V domains shown)
VH: B4 VH with N54T, L56R, K57S
VL: B1 VL with F90Q, L92I, D95F, F97H
B14: MS-Roche #7.9.H2 Fab (Fab, V domains shown)
VH: B4 VH with N54D, L56N, K57R
VL: B1 VL with F90L, L92I, S94N, D95M, F97I
notes: assembled
B15: MS-Roche #7.9.H4 Fab (Fab, V domains shown)
VH: B4 VH with N54V, L56M, Y59F
VL: B1 VL with F90L, L92I, S94N, D95M, F97I
notes: assembled
B16: MS-Roche #3.4.H7 Fab (Fab, V domains shown)
VH: QVQLVESGGGLVQPGGSLRLSCAASGFTFSSYAMSWVRQAPGKGLEWVSVISETGKNIYYADSVKGRFTISRDNSKNTLYLQMNSLRAEDTAVYYCARLTHYARYYRYFDVWGQGTLVTVSS
VL: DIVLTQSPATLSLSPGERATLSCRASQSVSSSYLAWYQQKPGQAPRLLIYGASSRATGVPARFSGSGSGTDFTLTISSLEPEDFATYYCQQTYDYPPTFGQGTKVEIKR
B17: MS-Roche #3.3.H3 Fab (Fab, V domains shown)
VH: B16 VH with V50A, E53Q, T54N, K56F, N57H
VL: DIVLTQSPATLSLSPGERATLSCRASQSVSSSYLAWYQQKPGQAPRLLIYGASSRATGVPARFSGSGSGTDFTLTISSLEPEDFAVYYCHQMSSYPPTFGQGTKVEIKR
B18: MS-Roche #3.3.H1 Fab (Fab, V domains shown)
VH: B16 VH with T54K, G55S, K56R, N57F
VL: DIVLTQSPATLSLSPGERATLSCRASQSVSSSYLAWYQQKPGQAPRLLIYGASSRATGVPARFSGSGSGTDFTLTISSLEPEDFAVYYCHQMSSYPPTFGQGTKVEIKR
B19: MS-Roche #3.4.H1 Fab (Fab, V domains shown)
VH: B16 VH with V50A, G55S, K56I, N57R, I58K
VL: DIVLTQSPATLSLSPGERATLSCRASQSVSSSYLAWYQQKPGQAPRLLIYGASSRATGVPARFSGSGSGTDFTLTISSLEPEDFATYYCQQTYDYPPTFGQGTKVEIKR
B20: MS-Roche #3.2.H2 Fab (Fab, V domains shown)
VH: B16 VH with V50A, E53Q, T54R, K56Q, N57F, I58T
VL: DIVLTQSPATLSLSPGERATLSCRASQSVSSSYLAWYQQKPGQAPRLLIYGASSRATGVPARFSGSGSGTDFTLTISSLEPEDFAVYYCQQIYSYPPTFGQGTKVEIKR

biological target: T5, Aβ (1-42) peptide (human); assay: SPR, immobilized fibers;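 further: biacore SPR using in vitro grown Aβ1-40 or Aβ1-42 fibrils immobilized on the chip with Fab analytes, KD from koff/kon fits or equilibrium isotherms based on total Fab concentration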
T5 construct: also called Aβ1-42 fibers; Aβ4
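Wherever OD ratio 17-22/BSA is given: ELISA of antibody at 10 or 2 µg/ml binding plate-coated BSA–peptide conjugates, detected with HRP anti-human Ig and TMB colour, mock-treated BSA without peptide as negative control.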
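Wherever OD ratio 18-23/BSA is given: ELISA of antibody at 10 or 2 µg/ml binding plate-coated BSA–peptide conjugates, detected with HRP anti-human Ig and TMB colour, mock-treated BSA without peptide as negative control.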
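Wherever Peptide-ratio 17-22/2-7 is given: ELISA of antibody at 10 or 2 µg/ml binding plate-coated BSA–peptide conjugates, detected with HRP anti-human Ig and TMB colour, mock-treated BSA without peptide as negative control.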
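Wherever Peptide-ratio 18-23/2-7 is given: ELISA of antibody at 10 or 2 µg/ml binding plate-coated BSA–peptide conjugates, detected with HRP anti-human Ig and TMB colour, mock-treated BSA without peptide as negative control.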

Kd [nM]	Binder
1710	B1
58	B2
12.7	B3
10.2	B4
74	B5
0.3	B6
2.8	B7
8.2	B8
5.3	B9
5	B10
6.7	B11
6.2	B12
10.1	B13
5.7	B14
4.2	B15
31.7	B16
3.3	B17
19.4	B18
14	B19
1.1	B20

biological target: T6, human Aβ (1-40) peptide (human); assay: SPR, immobilized fibers;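 further: biacore SPR using in vitro grown Aβ1-40 or Aβ1-42 fibrils immobilized on the chip with Fab analytes, KD from koff/kon fits or equilibrium isotherms based on total Fab concentration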
T6 construct: also called Aβ1-40 fibers

Kd [nM]	Binder
1100	B1
22	B2
13.3	B3
9.3	B4
22	B5
0.3	B6
4.2	B7
8.2	B8
45.4	B9
5.9	B10
12.7	B11
9.9	B12
8	B13
5	B14
4.8	B15
19.2	B16
1.4	B17
17.1	B18
13.5	B19
5.2	B20

Biological target: T1, BSA-conjugated Aβ heptapeptide VFFAEDC
Assay: ELISA

OD ratio 18-23/BSA	Peptide-ratio 18-23/2-7	Binder
7	0.29	B1
16	0.47	B2
16	0.68	B3
11	0.29	B4
15	0.41	B5
12	0.36	B6
20	0.57	B7
10	0.63	B8
20	0.61	B9
13	0.57	B10
9	0.29	B11
20	0.56	B12
18	0.6	B13
6	0.16	B14
15	0.49	B15
6	0.25	B16
5	0.16	B17
12	0.52	B18
8	0.3	B19
23	0.88	B20

Biological target: T2, BSA-conjugated Aβ heptapeptide LVFFAEC
Assay: ELISA

OD ratio 17-22/BSA	Peptide-ratio 17-22/2-7	Binder
4	0.17	B1
12	0.35	B2
14	0.57	B3
8	0.21	B4
11	0.3	B5
10	0.29	B6
11	0.31	B7
10	0.63	B8
17	0.52	B9
12	0.52	B10
8	0.25	B11
17	0.47	B12
13	0.43	B13
3	0.08	B14
10	0.32	B15
2	0.06	B17
4	0.17	B18
2	0.07	B19
12	0.46	B20

Biological target: T3, BSA-conjugated Aβ heptapeptide AEFRHDC
Assay: ELISA

OD ratio 2-7/BSA	Binder
24	B1
34	B2
24	B3
38	B4
37	B5
34	B6
35	B7
16	B8
33	B9
23	B10
31	B11
36	B12
30	B13
35	B14
30	B15
24	B16
31	B17
23	B18
27	B19
26	B20

Biological target: T4, BSA-conjugated Aβ heptapeptide FFAEDVC
Assay: ELISA

OD ratio 19-24/BSA	Peptide-ratio 19-24/2-7	Binder
4	0.17	B1
9	0.26	B2
11	0.45	B3
9	0.24	B4
9	0.24	B5
14	0.41	B6
9	0.27	B7
10	0.63	B8
18	0.55	B9
12	0.52	B10
8	0.25	B11
16	0.46	B12
15	0.5	B13
8	0.23	B14
7	0.22	B15
5	0.21	B16
2	0.06	B17
8	0.35	B18
2	0.07	B19
20	0.77	B20
